This is an account of results in patent US20210363214A1 (University of Washington, published 2021).

Data set [1] deals with the molecule itself. The data set is described as follows: AUC in detergent solution (C8E5); self-association to homodimer. How it is done: The dimer design with the shortest hydrophobic span (15 residues, TMHC2_S) was poorly behaved in both E. coli and mammalian cells, but the dimer designs with longer spans TMHC2, TMHC2_E and TMHC2_L localized to the cell membrane when expressed in HEK293T cells (data not shown) and in E. coli. The designed proteins were purified by extracting the E. coli membrane fraction with detergent, followed by nickel-NTA chromatography and size exclusion chromatography (SEC) with a yield of ˜2 mg/L (FIG. 6A-B). […] For the single chain scTMHC2 the major species in SEC was the monomer with a small side peak that was readily removed by purification (FIG. 6B).
Analytical ultracentrifugation (sedimentation velocity and sedimentation equilibrium) experiments were carried out using a Beckman XL-I analytical ultracentrifuge (Beckman Coulter) equipped with an eight-cell An-50 Ti rotor. The proteins were run in 20 mM sodium phosphate, pH 7.0, containing 200 mM NaCl supplemented with 0.5% C8E5, no density matching was necessary and the solvent density was calculated as 1.0075 g mL⁻¹. The partial specific volume of the protein was calculated by the program Sednterp™ (37). For sedimentation velocity, absorbance at 230 nm versus radial location was recorded during centrifugation at 50,000 rpm at 20° C. […] The data of sedimentation velocity and sedimentation equilibrium were analyzed using Sedfit™ and Sedphat™.

Data set [2] deals with the molecule itself. The data set is described as follows: AUC in detergent solution; self-association to homotrimer. From the text: We used a similar approach to design a transmembrane trimer with six membrane spanning helices (TMHC3) based on the 5L6HC3_1 scaffold (PDB ID: 5IZS). Guided by the results with the C2 designs, we chose a hydrophobic span of ˜30 Å (20 residues) (FIG. 4A). The design was expressed in E. coli and purified to homogeneity, eluting on a gel filtration column as a single homogeneous species (FIG. 5C).
Analytical ultracentrifugation (sedimentation velocity and sedimentation equilibrium) experiments were carried out using a Beckman XL-I analytical ultracentrifuge (Beckman Coulter) equipped with an eight-cell An-50 Ti rotor. The proteins were run in 20 mM sodium phosphate, pH 7.0, containing 200 mM NaCl supplemented with 0.5% C8E5, no density matching was necessary and the solvent density was calculated as 1.0075 g mL⁻¹. The partial specific volume of the protein was calculated by the program Sednterp™ (37). For sedimentation velocity, absorbance at 230 nm versus radial location was recorded during centrifugation at 50,000 rpm at 20° C. For sedimentation equilibrium, data were collected by UV detector at 20° C. for at least two protein concentrations at three rotor speeds. The data of sedimentation velocity and sedimentation equilibrium were analyzed using Sedfit™ and Sedphat™.

B1: TMHC2 (transmembrane hairpin C2) (designed binder)
chain: MTRTEIIRELERSLRLQLVLAIFLMALLIVLLWLQQNGSSNNNVNYLLIVILVLVLVIVALAVTQKYLVEQLKRQD
notes: De novo designed two-helix transmembrane hairpin, entered here as one protomer; It was expressed from pET-28b with an N-terminal hexa-histidine tag and a thrombin site
Take B1: in data set [1], the binding result is reported as “binds”.

B2: TMHC3 (designed binder)
chain: MSEELRAVADLQRLNIELARKLLIAVALLQLLNILLVMLTSELTDEKTILWMIVIVMFLSLAIVIVALREIRRAKEESRKIADESR
notes: De novo designed hairpin, entered as one protomer; It self-associates into a homotrimer with six TM helices; also called designed transmembrane trimer TMHC3; not shown: C-terminal hexa-histidine tag from pET-29b (gene without stop codon, NdeI/XhoI)
On to B2, for which the binding result in data set [2] was “binds”.
